# Results published in patent publication US20220041725A1 (MacroGenics, published 2022).
# Molecular target: T1, HER-2 (UniProt P04626 23-652, limits assumed)
# T1 construct: also called HER2/neu; erbB-2
# Assay: SPR (BIAcore 1000), HER-2 amine-coupled on chip, antibody injected at 6.25-200 nM
koff,kon,Molecule
6.3e-06 s⁻¹,110000 M⁻¹ s⁻¹,ch4D5 (antibody)
~3.2e-07 s⁻¹,170000 M⁻¹ s⁻¹,"ch4D5-wild-type Fc (antibody, human IgG1, kappa, V domains shown, Chimeric IgG with wild-type human IgG1 Fc; also called ch4D5-FcWT (wild-type Fc); Chimeric 4D5 Antibody having a wild-type Fc) VH: QVQLQQSGPELVKPGASLKLSCTASGFNIKDTYIHWVKQRPEQGLEWIGRIYPTNGYTRYDPKFQDKATITADTSSNTAYLQVSRLTSEDTAVYYCSRWGGDGFYAMDYWGQGASVTVSS VL: DIVMTQSHKFMSTSVGDRVSITCKASQDVNTAVAWYQQKPGHSPKLLIYSASFRYTGVPDRFTGSRSGTDFTFTISSVQAEDLAVYYCQQHYTTPPTFGGGTKVEIKR"
